± gives the uncertainty stated by the source.
Test: protein stability index of a GFP-peptide fusion (yeast GPS) (PSI 1-4); higher = more stable; sorted into four equal gates, so the index is relative within each strain
Procedure, shortened: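 The protein stability index of a peptide was calculated by multiplying its read frequency in each gate by that gate's number and adding the products. The peptides were tiled 17-residue stretches of yeast proteins, fused downstream of GFP on a Cherry-expressing plasmid and carried in yeast as a pooled library. Mid-log cultures in leucine-free medium were sorted into four equal gates by GFP/Cherry ratio, and each gate's plasmids were PCR-amplified and Illumina-sequenced.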

Sequence | protein stability index (doa10∆) | protein stability index (pdr5∆) | protein stability index (ubr1∆) | protein stability index (san1∆)
ATLYIPKALRFDRLVAG [FAS2] | 2.88 ± 0.22 | 1.23 ± 0.068 | 1.44 ± 0.09 | 
QLPSKFTCSCNSLTVDG [RPN14] | 2.2 ± 0.06 | 2.39 ± 0.062 | 2.17 ± 0.036 | 2.17 ± 0.052
ASEVATHSKLFADKKRD [PRP8] | 2.51 ± 0.063 | 2.69 ± 0.073 | 2.56 ± 0.068 | 2.31 ± 0.079
NPTEFDWPTYVDQNPLT [SRB8] | 2.85 ± 0.068 | 2.44 ± 0.043 | 2.19 ± 0.046 | 2.69 ± 0.054
EPMKQLNATKISPSAPS [YAR002W/NUP60] | 2.73 ± 0.075 | 2.91 ± 0.083 | 2.77 ± 0.078 | 2.96 ± 0.062
EAIRDPKNSSSPVQIAF [SSN8] | 2.55 ± 0.17 | 2.96 ± 0.15 | 2.98 ± 0.12 | 1.92 ± 0.22
AELQSNLQVELLSEHDD [YGL100W/SEH1] | 2.61 ± 0.083 | 2.95 ± 0.065 | 2.87 ± 0.061 | 2.62 ± 0.07
KNKPELYQIDYLGTKVE [PRE1] | 2.82 ± 0.091 | 2.95 ± 0.1 | 3.16 ± 0.089 | 3.09 ± 0.064
LKVQKLSRPSLPKIKTV [RPL35A] | 2.41 ± 0.062 | 3.11 ± 0.072 | 3.17 ± 0.059 | 3.17 ± 0.057
QNPKLFQTIFSKQDLIH [SIN4] | 2.43 ± 0.058 | 2.02 ± 0.046 | 2.02 ± 0.051 | 2.02 ± 0.085
KPFRQTKFKVRGSSSLY [RPL38] | 2.83 ± 0.12 | 3.33 ± 0.071 | 3 ± 0.085 | 3.17 ± 0.09
RYNGGNDNIGANRSRFN [SMB1] | 3.24 ± 0.099 | 3.39 ± 0.078 | 3.35 ± 0.08 | 3.14 ± 0.048
MSNDPGNEVSSLYPPPP [MED7] | 3.21 ± 0.1 | 2.92 ± 0.071 | 3.08 ± 0.062 | 2.69 ± 0.082
IVGVLQDDADPMVSVMK [RPT2] | 1.99 ± 0.057 | 2.31 ± 0.057 | 2.26 ± 0.056 | 2.49 ± 0.11
GVITVHNVFSKEQTIQL [RPN14] | 2.57 ± 0.14 | 2.63 ± 0.19 | 3.12 ± 0.14 | 2.95 ± 0.079
EFNSIDRVIFRVPIRSE [PRP8] | 3.32 ± 0.089 | 3.33 ± 0.097 | 3.11 ± 0.046 | 3.21 ± 0.13
HANSVVALTGLLIRSKT [YML031W/NDC1] | 1.86 ± 0.04 | 2.18 ± 0.046 | 2.35 ± 0.033 | 1.83 ± 0.052
GDYNNTVYSSEQYIQEL [SMC3] | 2.9 ± 0.11 | 3.2 ± 0.11 | 3.14 ± 0.042 | 3.22 ± 0.074
VVEGVTFVVEQLIKQSI [SNU114] | 2.52 ± 0.076 | 2.6 ± 0.095 | 2.85 ± 0.067 | 3.44 ± 0.098
FGIYILTQGINGKEVPL [MED1] | 1.48 ± 0.1 | 1.45 ± 0.068 | 1.38 ± 0.066 | 2.43 ± 0.14

Sequence | protein stability index (doa10∆) | protein stability index (pdr5∆) | protein stability index (ubr1∆) | protein stability index (san1∆)
MNGIQVDINRLKKGEVS [PRE3] | 2.15 ± 0.095 | 1.57 ± 0.063 | 1.36 ± 0.061 | 2.52 ± 0.082
RENVKSKDEPVSKAVES [SIR4] | 3.58 ± 0.15 | 3.73 ± 0.12 | 3.31 ± 0.18 | 2.93 ± 0.19
YVLRNVLRIPEEYLDAN [MTW1] | 2.67 ± 0.12 | 2.33 ± 0.15 | 2.82 ± 0.088 | 3 ± 0.061
AELNLPTVDEQRQYKVQ [SNF11] | 3.22 ± 0.081 | 3.3 ± 0.08 | 3.31 ± 0.067 | 3.12 ± 0.092
MNDVINTEEVNRLEKEQ [LIN1] | 2.99 ± 0.1 | 3.31 ± 0.17 | 3.61 ± 0.085 | 3.27 ± 0.074
MSGTTKRLNGKRKYLDI [SSN2] |  |  | 3.55 ± 0.12 | 
ETPKSNNSLSYHSGRLL [ITC1] | 3.22 ± 0.14 | 3.06 ± 0.12 | 3.32 ± 0.078 | 2.63 ± 0.13
QQWGNDFYKRDPRIAPL [FAS2] | 1.88 ± 0.058 | 2 ± 0.048 | 2 ± 0.05 | 1.87 ± 0.1
SMATPTHSDSHEDMKRR [ROX3] | 2.77 ± 0.11 | 2.94 ± 0.11 | 2.73 ± 0.04 | 2.53 ± 0.091
MSVDIDKKASMIISGSR [ASC1] | 2 ± 0.24 | 1.95 ± 0.12 | 1.99 ± 0.074 | 1.71 ± 0.23
LNTLNNVVEIWVFSYLR [SIR3] | 1.56 ± 0.043 | 1.6 ± 0.063 | 1.58 ± 0.053 | 1.42 ± 0.11
IRDPLTQTGLLQDLEEA [RPC82] | 3.31 ± 0.23 | 3.2 ± 0.17 |  | 3.15 ± 0.28
RQSKSSGKSNTSNDASN [ITC1] | 3.09 ± 0.095 | 3.28 ± 0.08 | 3.22 ± 0.076 | 3.34 ± 0.065
EFKIEQNNEQNPIDPFN [YDL116W/NUP84] | 2.96 ± 0.087 | 3.11 ± 0.087 | 3.23 ± 0.061 | 3.05 ± 0.067
HKQELQDLILDLKKKLN [SMC4] | 2.55 ± 0.078 | 2.75 ± 0.16 | 1.75 ± 0.058 | 2.31 ± 0.062
KYDRILKEVPTYRYVSV [RPS25A] |  |  | 2.89 ± 0.14 | 2.87 ± 0.22
YITAKNNVVINFKDMSH [PRP8] | 2.26 ± 0.052 | 2.02 ± 0.047 | 2.14 ± 0.043 | 2.42 ± 0.063
IFNSNKAKIIPGNGKHA [SIR4] | 2.34 ± 0.11 | 3.13 ± 0.2 | 2.2 ± 0.093 | 1.9 ± 0.17
KQQPTMQANKLDSQETP [SWI3] | 2.95 ± 0.12 | 2.98 ± 0.073 | 2.95 ± 0.071 | 2.92 ± 0.081
PQEPKHIQEEEEQDVDM [RPC19] | 3.41 ± 0.09 | 3.36 ± 0.09 | 3.28 ± 0.056 | 3.12 ± 0.05
